Data from FireProtDB (doi:10.1111/j.1432-1033.1991.tb16033.x).

B1: Ribonuclease HI, P0A7Y4 (parent)
chain: MLKQVEIFTDGSCLGNPGPGGYGAILRYRGREKTFSAGYTRTTNNRMELMAAIVALEALKEHCEVILSTDSQYVRQGITQWIHNWKKRGWKTADKKPVKNVDLWQRLDAALGQHQIKWEWVKGHAGHPENERCDELARAAAMNPTLEDTGYQVEV

Variants of: B1
Conditions: Escherichia coli (strain K12); pH 5.5; 25 °C; GdnHCl; Fluorescence; Sodium acetate 20 mM; NaCl 0.1 M; reversible: yes; structure 2RN2; whole UniProt chain shown

Row | Variant | ddG of mutation (higher = less stable) | denaturant m value | denaturant midpoint (higher = more stable) | unfolding free energy
1 | MLKQVEIFTDGSCLGNPGPGGYGAILRYRGREKTFSAGYTRTTNNRMELMAAIVALEALKEHCEVILSTDSQYVRQGITQWIHNWKKRGWKTADKKPVKNVDLWQRLDAALGQHQIKWEWVKGHAGAPENERCDELARAAAMNPTLEDTGYQVEV [H127A] | 0.58 kcal/mol | 4.98 kcal/mol/M | 1.74 M | 8.68 kcal/mol
2 | MLKQVEIFTDGSCLGNPGPGGYGAILRYRGREKTFSAGYTRTTNNRMELMAAIVALEALKEACEVILSTDSQYVRQGITQWIHNWKKRGWKTADKKPVKNVDLWQRLDAALGQHQIKWEWVKGHAGHPENERCDELARAAAMNPTLEDTGYQVEV [H62A] | -0.38 kcal/mol | 5.19 kcal/mol/M | 1.86 M | 9.64 kcal/mol
3 | MLKQVEIFTDGSCLGNPGPGGYGAILRYRGREKTFSAGYTRTTNNRMELMAAIVALEALKEHCEVILSTDSQYVRQGITQWIHNWKKRGWKTADKKPVKNVDLWQRLDAALGQHQIKWEWVKGAAGHPENERCDELARAAAMNPTLEDTGYQVEV [H124A] | -0.48 kcal/mol | 5.36 kcal/mol/M | 1.82 M | 9.74 kcal/mol
4 | MLKQVEIFTDGSCLGNPGPGGYGAILRYRGREKTFSAGYTRTTNNRMELMAAIVALEALKEHCEVILSTDSQYVRQGITQWIHNWKKRGWKTADKKPVKNVDLWQRLDAALGQAQIKWEWVKGHAGHPENERCDELARAAAMNPTLEDTGYQVEV [H114A] | 2.63 kcal/mol | 4.23 kcal/mol/M | 1.57 M | 6.63 kcal/mol
